Source: patent publication US20100119588A1

These substances were tested against hemagglutinin H1 on influenza virus A/Puerto Rico/8/34 strain (H1N1) (influenza virus A/Puerto Rico/8/34 (H1N1)) (UniProt P03452) (assay: cell-based or functional assay).
C18-s2(1-5) (C18-ARLPR peptide amide) showed an IC50(µM), plaque assay, infection of MDCK cells of 3.1 µM. Substance C18-s2(2-8) (C18-RLPRTMV peptide amide) has an IC50(µM), plaque assay, infection of MDCK cells of 9.2 µM. C18-s2(3-8) (C18-LPRTMV peptide amide) showed an IC50(µM), plaque assay, infection of MDCK cells of over 100 µM. Substance “C18-s2(r1-8) (C18-VMTRPLRA peptide amide)” has an IC50(µM), plaque assay, infection of MDCK cells of 93 µM. Substance C18-s2(1-7) (C18-ARLPRTM peptide amide) has an IC50(µM), plaque assay, infection of MDCK cells of 7.1 µM. Work on C18-s2(1-6) (C18-ARLPRT peptide amide) yielded an IC50(µM), plaque assay, infection of MDCK cells of 3.5 µM. C18-s2(1-3) (C18-ARL peptide amide) gave an IC50(µM), plaque assay, infection of MDCK cells of over 100 µM. “C18-s2(5-11) (C18-RTMVHPK peptide amide)” gave an IC50(µM), plaque assay, infection of MDCK cells of 11 µM. C18-s2(1-2) (C18-AR peptide amide) was tested, and the IC50(µM), plaque assay, infection of MDCK cells was over 100 µM. In the case of C18-s2(1-4) (C18-ARLP peptide amide), the IC50(µM), plaque assay, infection of MDCK cells is reported as 0.9 µM. In the case of “C18-s2(8-15) (C18-VHPKPAQP peptide amide)”, the IC50(µM), plaque assay, infection of MDCK cells is reported as 59 µM. Substance C18-s2(4-8) (C18-PRTMV peptide amide) has an IC50(µM), plaque assay, infection of MDCK cells of over 100 µM.

Molecular target: hemagglutinin H1 on influenza virus A/Puerto Rico/8/34 strain (H1N1) (influenza virus A/Puerto Rico/8/34 (H1N1)) (UniProt P03452)
Test: cell-based or functional assay
Remark: another data set of the same source
With C18-s2(r1-5) (C18-RPLRA peptide amide) the IC50(µM), plaque assay, infection of MDCK cells was 0.55 µM. Substance C18-s2(1-5) (C18-ARLPR peptide amide) has an IC50(µM), plaque assay, infection of MDCK cells of 0.35 µM. C18-s2(r1-4) (C18-PLRA peptide amide) gave an IC50(µM), plaque assay, infection of MDCK cells of 0.41 µM. With “C18-s2(1-8) (C18-ARLPRTMV peptide amide)” the IC50(µM), plaque assay, infection of MDCK cells was 2.4 µM.
